Positions of bridges follow the written chain, without caps; N, C: chain ends. Non-standard residues stand in square brackets, D forms with d. Residues, ends and D or L forms follow the SMILES beside them. S5 = C=CCCC[C@](C)(N)C(=O)O
T1: human BclxLΔLT (BclxL without the flexible loop and the transmembrane helix), Q07817-1
T1 chain: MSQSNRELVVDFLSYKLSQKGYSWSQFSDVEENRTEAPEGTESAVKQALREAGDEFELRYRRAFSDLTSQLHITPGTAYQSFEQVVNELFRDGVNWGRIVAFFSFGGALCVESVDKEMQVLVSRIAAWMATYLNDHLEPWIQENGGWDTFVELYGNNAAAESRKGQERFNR

B1: wild-type VDAC1-N peptide of the alanine scanning set V17A (peptide)
chain: MAVPPTYADLGKSARDAFTKGYGF
B2: wild-type VDAC1-N peptide of the alanine scanning set S13A (peptide)
chain: MAVPPTYADLGKAARDVFTKGYGF
B3: wild-type VDAC1-N peptide of the alanine scanning set F18A (peptide)
chain: MAVPPTYADLGKSARDVATKGYGF
B4: wild-type VDAC1-N peptide of the alanine scanning set D16A (peptide)
chain: MAVPPTYADLGKSARAVFTKGYGF
B5: wild-type VDAC1-N peptide of the alanine scanning set T19A (peptide)
chain: MAVPPTYADLGKSARDVFAKGYGF
B6: wild-type VDAC1-N peptide of the alanine scanning set G11A (peptide)
chain: MAVPPTYADLAKSARDVFTKGYGF
B7: wild-type VDAC1-N peptide of the alanine scanning set Y7A (peptide)
chain: MAVPPTAADLGKSARDVFTKGYGF
B8: VDAC1-N L10A peptide (peptide)
chain: MAVPPTYADAGKSARDVFTKGYGF
B9: wild-type VDAC1-N peptide of the alanine scanning set D9A (peptide)
chain: MAVPPTYAALGKSARDVFTKGYGF
B10: Bad-BH3 peptide (residues 140–165) (peptide)
peptide: NLWAAQRYGRELRRMSDEFEGSFKGL
B11: VDAC1-N peptide (residues 1–26) (peptide, UniProt P21796 1-26, looked up)
peptide: MAVPPTYADLGKSARDVFTKGYGFGL
notes: VDAC1, human, N-terminal residues 1-26; Isotope-labelled (13C and 15N) for NMR; The same stretch 1-26 stands fused to the C-terminus of BclxLΔLT in m8; the row of the crystal structure uses m6 for that stretch; also called VDAC1-N (1–26); 15N-labeled VDAC1-N; source: E. coli, as His6-GB1-TEV fusion, Ni-NTA, TEV digestion, reverse Ni-NTA; not shown: His6, N-terminal, cleaved; GB1, N-terminal, …

Experiments:
[1] = biological target: T2, BclxLΔLT (Homo sapiens, UniProt Q07817, DEL45-84); experiment: NMR-detected affinity measurement, alanine scanning of VDAC1-N peptides; assay type: binding; conditions: NMR CSP titration into 100 µM 2H,15N BclxLΔLT, 20 mM NaPi pH 7.0, 50 mM NaCl; one-site model; mean of individual NMR resonances as probes (n = 3)
T2 construct: BclxLΔLT (residues 1–44 and 85–213); inferred from Ni-NTA purification; made in house; host or cells: E. coli BL21 (DE3)
Description: The resulting chemical shift perturbation was plotted against the peptide concentration to extract KD values for each peptide using a one-site binding model using OriginPro (OriginLab) for data fitting.

[2] = biological target: human BclxLΔLT (BclxL without the flexible loop and the transmembrane helix) (human) (UniProt Q07817); experiment: ITC; MicroCal PEAQ-ITC, 20 °C; BclxLΔLT in the cell (250 µM for the linear, 50 µM for the stapled peptide), peptide in the syringe (500 µM stapled); 10 mM NaPi pH 7.0, 50 mM NaCl, 0.5 mM EDTA, 1 mM DTT
[3] = tested on: Bak-BclxL complex; experiment: Liposome permeabilization (pore-forming) assay, cBid-activated Bak inhibited by BclxL; assay type: biochemical, human; conditions: increasing concentrations of peptide (10-100 µM); 50 nM BakΔTM, 40 nM cBid, 50 nM BclxLΔTM
[4] = biological target: human BclxLΔTM (soluble domain of BclxL, transmembrane helix deleted) (human) (UniProt Q07817)
[5] = biological target: T1, human BclxLΔLT (BclxL without the …); experiment: NMR-detected affinity measurements (alanine scanning); conditions: chain shown with the change;; parent: est. 0.2 mM; read off a plot
[6] = biological target: human BclxLΔLT (BclxL without the flexible loop and the transmembrane helix) (human) (UniProt Q07817); experiment: NMR titration; alanine scan: VDAC1-N peptides titrated into 100 µM 2H,15N-BclxLΔLT; 20 mM NaPi pH 7.0, 50 mM NaCl, 0.5 mM EDTA, 5 mM DTT; KD from chemical shift perturbations, one-site binding model
[7] = biological target: human BclxLΔLT (BclxL without the flexible loop and the transmembrane helix) (human, UniProt Q07817-1 1-212, flexible loop (residues 44–84) deleted); experiment: NMR
[8] = biological target: human BclxLΔTM (soluble domain of BclxL, transmembrane helix deleted) (human) (UniProt Q07817); remark: listed apart in the source
[9] = biological target: T3, human BclxLΔLT (BclxL without the flexible loop and the transmembrane helix) (human, UniProt Q07817-1 1-212, flexible loop (residues 44–84) deleted); experiment: crystal structure; single-chain BclxLΔLT-VDAC1-N construct, crystal from 1.6 M ammonium sulfate, 0.1 M bicine pH 9.0, 292 K; 1.95 Å; conditions: both partners purified
T3 construct: BclxL, human, residues 1-43 and 85-212 (flexible loop 44-84 and transmembrane helix deleted); the NMR methods say 1-44 and 85-213; Isotope-labelled for NMR; In the crystal it stood fused to VDAC1-N(1-26) on one chain; source: E. coli BL21 (DE3), purified (Ni-NTA, SEC)

[10] = biological target: T4, human BclxLΔTM (soluble domain of BclxL, transmembrane helix deleted) (human, UniProt Q07817-1 1-212); experiment: NMR titration; 100 µM 15N-labelled VDAC1-N peptide with a 5-fold excess of unlabelled BclxLΔTM; 20 mM NaPi pH 7.0, 50 mM NaCl, 303 K, 500 MHz; conditions: both partners purified
T4 construct: BclxL, human, soluble domain without the transmembrane helix, residues 1-212 (the NMR methods say 1-213); 2H,15N-labelled where it was the observed species in NMR; source: E. coli BL21 (DE3), purified (Ni-NTA, SEC)

T2 sequence (Q07817 with tags, fused parts or gaps DEL45-84 limits assumed): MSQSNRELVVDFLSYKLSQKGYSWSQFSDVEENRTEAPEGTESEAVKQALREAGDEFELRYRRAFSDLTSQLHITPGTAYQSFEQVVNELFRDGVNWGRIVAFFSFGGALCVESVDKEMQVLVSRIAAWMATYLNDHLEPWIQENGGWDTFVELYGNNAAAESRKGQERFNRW

Molecule | Kd [1] [µM] | Kd [5] [µM] | other results
CC(C)C[C@H](NC(=O)[C@H](CC(=O)O)NC(=O)[C@H](C)NC(=O)[C@@H](N)Cc1ccc(O)cc1)C(=O)N[C@@H](C)C(=O)N[C@@H](CCCCN)C(=O)N[C@@H](CO)C(=O)N[C@@H](C)C(=O)N[C@@H](CCCNC(=N)N)C(=O)N[C@@H](CC(=O)O)C(=O)N[C@H](C(=O)N[C@@H](Cc1ccccc1)C(=O)N[C@H](C(=O)N[C@@H](CCCCN)C(=O)NCC(=O)O)[C@@H](C)O)C(C)C [G11A] (H-YADLAKSARDVFTKG-OH) | 609 | – | –
CC(C)C[C@H](NC(=O)[C@H](CC(=O)O)NC(=O)[C@H](C)NC(=O)[C@H](C)N)C(=O)NCC(=O)N[C@@H](CCCCN)C(=O)N[C@@H](CO)C(=O)N[C@@H](C)C(=O)N[C@@H](CCCNC(=N)N)C(=O)N[C@@H](CC(=O)O)C(=O)N[C@H](C(=O)N[C@@H](Cc1ccccc1)C(=O)N[C@H](C(=O)N[C@@H](CCCCN)C(=O)NCC(=O)O)[C@@H](C)O)C(C)C [Y7A] (H-AADLGKSARDVFTKG-OH) | 446 | – | –
CC(C)C[C@H](NC(=O)[C@H](CC(=O)O)NC(=O)[C@H](C)NC(=O)[C@@H](N)Cc1ccc(O)cc1)C(=O)NCC(=O)N[C@@H](CCCCN)C(=O)N[C@@H](C)C(=O)N[C@@H](C)C(=O)N[C@@H](CCCNC(=N)N)C(=O)N[C@@H](CC(=O)O)C(=O)N[C@H](C(=O)N[C@@H](Cc1ccccc1)C(=O)N[C@H](C(=O)N[C@@H](CCCCN)C(=O)NCC(=O)O)[C@@H](C)O)C(C)C [S13A] (H-YADLGKAARDVFTKG-OH) | 408 | – | –
CC(C)C[C@H](NC(=O)[C@H](CC(=O)O)NC(=O)[C@H](C)NC(=O)[C@@H](N)Cc1ccc(O)cc1)C(=O)NCC(=O)N[C@@H](CCCCN)C(=O)N[C@@H](CO)C(=O)N[C@@H](C)C(=O)N[C@@H](CCCNC(=N)N)C(=O)N[C@@H](CC(=O)O)C(=O)N[C@H](C(=O)N[C@@H](C)C(=O)N[C@H](C(=O)N[C@@H](CCCCN)C(=O)NCC(=O)O)[C@@H](C)O)C(C)C [F18A] (H-YADLGKSARDVATKG-OH) | 367 | – | –
hydrocarbon-stapled VDAC1 peptide encompassing residues 7–21 (stVDAC1-N) (from UniProt P21796 7-21) | – | – | Kd [2]: 2 µM
CC(C)C[C@H](NC(=O)[C@H](CC(=O)O)NC(=O)[C@H](C)NC(=O)[C@@H](N)Cc1ccc(O)cc1)C(=O)N[C@@]1(C)CCCC=CCCC[C@@](C)(C(=O)N[C@@H](CC(=O)O)C(=O)N[C@H](C(=O)N[C@@H](Cc2ccccc2)C(=O)N[C@H](C(=O)N[C@@H](CCCCN)C(=O)NCC(=O)O)[C@@H](C)O)C(C)C)NC(=O)[C@H](C)NC(=O)[C@H](CO)NC(=O)[C@H](CCCCN)NC1=O [stVDAC1-N] (H-YADL[S5]KSA[S5]DVFTKG-OH; staple 5-9; N-terminus and C-terminus assumed) | – | – | effect on pore-forming activity of BclxL-inhibited Bak (in words) [3]: concentration-dependent rescue of the pore-forming activity of Bak
CC(C)C[C@H](NC(=O)[C@H](CC(=O)O)NC(=O)[C@H](C)NC(=O)[C@@H](N)Cc1ccc(O)cc1)C(=O)NCC(=O)N[C@@H](CCCCN)C(=O)N[C@@H](CO)C(=O)N[C@@H](C)C(=O)N[C@@H](CCCNC(=N)N)C(=O)N[C@@H](C)C(=O)N[C@H](C(=O)N[C@@H](Cc1ccccc1)C(=O)N[C@H](C(=O)N[C@@H](CCCCN)C(=O)NCC(=O)O)[C@@H](C)O)C(C)C [D16A] (H-YADLGKSARAVFTKG-OH) | 1260 | – | –
CC(C)C[C@H](NC(=O)[C@H](CC(=O)O)NC(=O)[C@H](C)NC(=O)[C@@H](N)Cc1ccc(O)cc1)C(=O)NCC(=O)N[C@@H](CCCCN)C(=O)N[C@@H](CO)C(=O)N[C@@H](C)C(=O)N[C@@H](CCCNC(=N)N)C(=O)N[C@@H](CC(=O)O)C(=O)N[C@H](C(=O)N[C@@H](Cc1ccccc1)C(=O)N[C@H](C(=O)N[C@@H](CCCCN)C(=O)NCC(=O)O)[C@@H](C)O)C(C)C [VDAC1 wt] | 165 | – | –
CC(C)C[C@H](NC(=O)[C@H](C)NC(=O)[C@H](C)NC(=O)[C@@H](N)Cc1ccc(O)cc1)C(=O)NCC(=O)N[C@@H](CCCCN)C(=O)N[C@@H](CO)C(=O)N[C@@H](C)C(=O)N[C@@H](CCCNC(=N)N)C(=O)N[C@@H](CC(=O)O)C(=O)N[C@H](C(=O)N[C@@H](Cc1ccccc1)C(=O)N[C@H](C(=O)N[C@@H](CCCCN)C(=O)NCC(=O)O)[C@@H](C)O)C(C)C [D9A] (H-YAALGKSARDVFTKG-OH) | 1070 | – | –
CC(C)[C@H](NC(=O)[C@H](CC(=O)O)NC(=O)[C@H](CCCNC(=N)N)NC(=O)[C@H](C)NC(=O)[C@H](CO)NC(=O)[C@H](CCCCN)NC(=O)CNC(=O)[C@H](C)NC(=O)[C@H](CC(=O)O)NC(=O)[C@H](C)NC(=O)[C@@H](N)Cc1ccc(O)cc1)C(=O)N[C@@H](Cc1ccccc1)C(=O)N[C@H](C(=O)N[C@@H](CCCCN)C(=O)NCC(=O)O)[C@@H](C)O [L10A] (H-YADAGKSARDVFTKG-OH) | 4030 | – | –
wild-type VDAC1-N peptide of the alanine scanning set | – | – | rescue of cBid-activated Bak pore formation inhibited by BclxL (liposome permeabilization), 100 µM peptide [4]: 80%
CC(C)C[C@H](NC(=O)[C@H](CC(=O)O)NC(=O)[C@H](C)NC(=O)[C@@H](N)Cc1ccc(O)cc1)C(=O)NCC(=O)N[C@@H](CCCCN)C(=O)N[C@@H](CO)C(=O)N[C@@H](C)C(=O)N[C@@H](CCCNC(=N)N)C(=O)N[C@@H](CC(=O)O)C(=O)N[C@H](C(=O)N[C@@H](Cc1ccccc1)C(=O)N[C@@H](C)C(=O)N[C@@H](CCCCN)C(=O)NCC(=O)O)C(C)C [T19A] (H-YADLGKSARDVFAKG-OH) | 201 | – | –
CC(C)C[C@H](NC(=O)[C@H](CC(=O)O)NC(=O)[C@H](C)NC(=O)[C@@H](N)Cc1ccc(O)cc1)C(=O)NCC(=O)N[C@@H](CCCCN)C(=O)N[C@@H](CO)C(=O)N[C@@H](C)C(=O)N[C@@H](CCCNC(=N)N)C(=O)N[C@@H](CC(=O)O)C(=O)N[C@@H](C)C(=O)N[C@@H](Cc1ccccc1)C(=O)N[C@H](C(=O)N[C@@H](CCCCN)C(=O)NCC(=O)O)[C@@H](C)O [V17A] (H-YADLGKSARDAFTKG-OH) | 713 | – | –
B1 | – | 600 | –
B2 | – | 400 | –
B3 | – | 300 | –
B4 | – | 1200 | –
B5 | – | 200 | –
B6 | – | 500 | –
B7 | – | 400 | –
B8 | – | 4000 | fold reduction in affinity against wild-type VDAC1-N [6]: 20 fold; Kd [7]: ~9000 µM
B9 | – | 1000 | –
B10 | – | – | recovery of cBid-activated Bak pore formation inhibited by BclxL (liposome permeabilization); Bad-BH3 1 to 100 nM [8]: 50 nM
B11 | – | – | binding result [9]: binds; binding result [10]: binds
